# B1: monoclonal antibody 4h12 (IgG) [mouse] / P. falciparum CelTOS (3D7, PF3D7_1216600, residue F25-D182) [P. falciparum] (parent complex)
# chain 1: QVQLQQSGPELVKPGASVKISCKASGYALSSSWLNWVKQRPGQGLEWIGRIFPGDGDTNYNGKFKGKATLTADKSSSTAYLQLSSLTSVDSAVYFCARGGTVVFDYWGQGTTLTVSSAKTTPPSVYPLAPGSAAQTNSMVTLGCLVKGYFPEPVTVTWNSGSLSSGVHTFPAVLQSDLYTLSSSVTVPSSTWPSETVTCNVAHPASSTKVDKKIVPRD
# chain 2: DIVMTQSHKFMSTSVGDRVNITCKASQDVGIAVAWYQQRPGQSPKLLIYWASKRHTGVHDRFTGTGSGTDFTLTISTVQSEDLADYFCQQYSNSLTFGAGTTLELSRADAAPTVSIFPPSSEQLTSGGASVVCFLNNFYPKDINVKWKIDGSERQNGVLNSWTDQDSKDSTYSMSSTLTLTKDEYERHNSYACEATHKTSTSPIVKSFNR
# chain 3: FRGNNGHNSSSSLYNGSQFIEQLNNSFTSAFLESQSMNKIGDDLAETISNELVSVLQKNSPTFLESSFDIKSEVKKHAKSMLKELIKVGLPSFENLVAENVKPPKVDPATYGIIVPVLTSLFNKVETAVGAKVSDEIWNYNSPDVSESEESLSDDFFD
# B2: monoclonal antibody 7g7 (IgG) [mouse] / P. vivax CelTOS (Sal-1, PVX_123510, residue L36-D196) [P. vivax] (parent complex)
# chain 1: EIQLQQSGPELVKPGASVKVSCKASGYSFTDYNMYWVKQSHGKSLEWIGYIDPYNGGTRYNQKFRDKATLTVDKSSSTAFMHLNSLTSEDSAVYYCARGYYYGNPLHFDVWGAGTTVTVSSAKTTPPSVYPLAPGSAAQTNSMVTLGCLVKGYFPEPVTVTWNSGSLSSGVHTFPAVLQSDLYTLSSSVTVPSSTWPSETVTCNVAHPASSTKVDKKIVPR
# chain 2: QIVLTQSPAIMSASPGEKVTMTCSASSSVSYIHWYQQKSGTSPKRWIYDTSKLASGVPARFSGSGSGTSYSLTISSMEAEDAATYYCQQWISYPATFGAGTKLELKRADAAPTVSIFPPSSEQLTSGGASVVCFLNNFYPKDINVKWKIDGSERQNGVLNSWTDQDSKDSTYSMSSTLTLTKDEYERHNSYTCEATHKTSTSPIVKSFNRNEC
# chain 3: LRGKSGSTASSSLEGGSEFSERIGNSLSSFLSESASLEVIGNELADNIANEIVSSLQKDSASFLQSGFDVKTQLKATAKKVLVEALKAALEPTEKIVASTIKPPRVSEDAYFLLGPVVKTLFNKVEDVLHKPIPDTIWEYESKGSLEEEEAEDEFSDELLD
# Variants of: B1
# Test: ELISA; parent: 100; read off a plot
row,Variant,percent of parent
1,chain 3 P108A,~96%
2,"chain 3 Q57A, chain 3 K58A, chain 3 N59A",~1%
3,"chain 3 S60A, chain 3 P61A, chain 3 T62A",~27%
4,"chain 3 I70A, chain 3 K71A, chain 3 S72A, chain 3 E73A",~75%
5,"chain 3 G112A, chain 3 I113A, chain 3 I114A",~98%
6,"chain 3 S67A, chain 3 F68A, chain 3 D69A",~94%
7,"chain 3 F63A, chain 3 L64A, chain 3 E65A",~0%
8,"chain 3 S29A, chain 3 F31A",~92%
9,"chain 3 Y14A, chain 3 N15A, chain 3 G16A",~96%
10,"chain 3 V129A, chain 3 G130A",~100%
11,"chain 3 L32A, chain 3 E33A, chain 3 S34A",~91%
12,"chain 3 D135A, chain 3 E136A, chain 3 I137A",~98%
13,"chain 3 Q35A, chain 3 S36A, chain 3 M37A",~100%
14,"chain 3 W138A, chain 3 N139A, chain 3 Y140A",~93%
15,"chain 3 G16A, chain 3 S17A, chain 3 Q18A",~93%
16,"chain 3 K132A, chain 3 V133A, chain 3 S134A",~99%

# Variants of: B2
# Test: ELISA; parent: 100; read off a plot
row,Variant,percent of parent
1,"chain 3 R105A, chain 3 V106A, chain 3 S107A",~77%
2,"chain 3 W138A, chain 3 E139A, chain 3 Y140A",~1%
3,"chain 3 G115A, chain 3 P116A, chain 3 V117A",~94%
4,"chain 3 E14A, chain 3 G15A, chain 3 G16A",~100%
5,"chain 3 K102A, chain 3 P103A, chain 3 P104A",~86%
6,"chain 3 F63A, chain 3 L64A, chain 3 Q65A",~100%
7,"chain 3 S32A, chain 3 E33A, chain 3 S34A",~83%
8,"chain 3 Q57A, chain 3 K58A, chain 3 D59A",~98%
9,"chain 3 G16A, chain 3 S17A, chain 3 E18A",~98%
10,"chain 3 P132A, chain 3 I133A, chain 3 P134A",~1%
11,"chain 3 S29A, chain 3 F30A, chain 3 L31A",~100%
12,"chain 3 E108A, chain 3 D109A",~68%
13,"chain 3 S36A, chain 3 L37A",~93%
14,"chain 3 S60A, chain 3 S62A",~100%
15,"chain 3 L129A, chain 3 H130A, chain 3 K131A",~1%
16,"chain 3 F112A, chain 3 L113A, chain 3 L114A",~50%
17,"chain 3 G67A, chain 3 F68A, chain 3 D69A",~99%

# Source: paper PMC11362571, “Multistage protective anti-CelTOS monoclonal antibodies with cross-species sterile protection against malaria” (Nature Communications, 2024)
